From the DeepSol protein solubility set come the findings set out here.

The series is described as follows: soluble on expression in E. coli; label from the status in PepcDB or PDB records.
Regarding “MGSDKIHHHHHHMKALIFDVDDTLYDQIQPFERALERHIEVAREQIEPLYLSFRRYADEVFEATAIGKMSLKDSHIYRMKHALADFGYQVSDATALAIQIDYDYFQGQIELSPVFPEIFSWCQAQGIAMGIITNGPYRHQLRKIRTMGLVNWFELEHVLISGQVGITKPNPAIFQLMEERLGMSGEDICYLGDSFENDVVGAKAANWKAIWFNHRKRVEPTAPYYAYYVVTDWDELVEVIQSF”, the “soluble on expression in E. coli” value was “not soluble”.
Take “MGSDKIHHHHHHMIDVLVIGGGNAALCAALTAREAGASVTLLEAAPREWRGGNSQHTRNLRCMHDEPQDVLVDAYPEEEFWQDLLKVTGGITDEHLARLVIRHSSSCRDWMRRHGVNFQPPLSGTLHLSRTNAFFMGGGKALVNAYYRSARQLGVEIRYETPVDSLELDDNGNFIAAHTSSGRIEARSCVLACGGFESNREWLREAWGQNERGEWPGENFLIRGTRFNQGVLLKFLMQHGADIIGDPSQGHCVAIDARAPLYDGGICTRIDCVSLGIVVNRDAVRFYDEGEDFWPKRYAIWGRLTALQPGQIAYSIIDAKAIGRFMPPVFPGIQADTLPELARKIGLDEAQFVQTVETYNAACRIGTFDHTVLDDCHTENLQPAKTHWARPIDTGPFYAFAVRPGITFTYLGLKVDETAAVRFNGRPSENLFVAGEMMAGNVLGKGYTAGVGMSIGTAFGRIAGTQAAKAALQRHQTGALHEAA”: the “soluble on expression in E. coli” value is recorded as “not soluble”.
The value for “MSLDVAALVSGGVDSSVVVHRLCEEGYKPAIFYIRIGMEDKDGYIDCPAEEDIELTTLIARRYGCPFEVVDLHKEYWERVVSYTVETVRRGLTPNPDMMCNKLIKFGCFEERWGYQFDRIATGHYATTDLLNGKTYLSTAKDPVKDQTDFLAQINFAQISKLMFPIGHLLKSEVRAIANAAGLPSAKRKDSQGICFLGKIDYNDFIERYLGKKEGRIIELETGKVIGRHQGYWFHTIGQRKGLGLSGGPWFVVKKDIKRNIILVSRGYDPDAQYGKTIEMETFDFITEDAYEAGYWNREDATPVTFKIRHTPEFTRGLLYKGEKGYRLESEERIQGIAPGQYCVIYDEDHHLCYGSGMITKGREGHHHHHH” was “soluble”.
Then “MQDDKKVAFPGDMIATTEEYLPGKNTEEKNGEIIAVKFGQIIRDDINLLISVDTQKKEFTLKKGDIVYGQVVKGEQHRYIVRIVGAFQKGLGLREIDEEMQLSLGIARRPQSDFIAIGDLIRGYVIRTGDFPEISINGNHYGVISAVCLRCRQPLVKRGITLYCENCQRTEIRKMADDYGNVDIFNYENRIQNQVKANGKRRLEHHHHHH”, with “soluble”; and “SGTPPGLQTDCEALLSRFQETDSVRFEDFTELWRNMKFGTIFCGRMRNLEKNMFTKEALALAWRYFLPPYTFQIRVGALYLLYGLYNTQLCQPKQKIRVALKDWDEVLKFQQDLVNAQHFDAAYIFRKLRLDRAFHFTAMPKLLSYRMKKKIHRAEVTEEFKDPSDRVMKLITSDVLEEMLNVHDHYQNMKHVISVDKSKPDKALSLIKDDFFDNIKNIVLEHQQWHKDRKNPSLKSKTNDGEEKMEGNSQETERCERAESLAKIKSKAFSVVIQASKSRRHRQVKLDSSDSDSASGQGQVKATRKKEKKERLKPAGRKMSLRNKGNVQNIHKEDKPLSLSMPVITEEEENESLSGTEFTASKKRRKH”, with “soluble”.
Then “MLVVPARLHRWPPEVQDLFGREGPLVLEIGFGDGRFTAELARSRPDWLVLGAEVSAASVLRALRRMRREGLANVRLYHGQGPFALRNLVLPGTLDQVIVNFPDPWPKKRHQERRLLREAFFRRLSTRLKPGGSLLLTTDHEEYFRFALEEAERTGLYRVEVRPPPEAHLRTKYALKWKEAGRAFFHAAFIKLREDPAPWPPLRRYDVAHALLSGELPQDLALEKTPVRLKEGVAVFLEVARGKEGFYVLTHVEEEDLTQDLLLEVRKSARGVYAGVSRFGSPLITEAVKGAVRALVDRLEAHGLEVVQDHT”, with “soluble”; and “PYARFQSAMFDKDTLIVSYDAERGEPRGARKKTVNKEEAGLGDCINCAMCVQVCPVGIDIRNGLQYQCIGCAACIDACDEIMDKMGYPRGL”, with “not soluble”.
On to “MPLALDDGDVNLSELRAFDLLGRCETGSIVNTVSLSSTGNYLAAGGFDHKVYYYDSRGTQLWNYTTGDIVYTVSISSDGSRIAAGSNDRKVYFFNREGELLWSRKTGGNINSVAVSSEGLYIATGGEDGKVYFLDKDGKLLWSFNSGDAVRSVAISRDGDYVLEHHHHHH”, for which the “soluble on expression in E. coli” value was “not soluble”.
Consider “MPYQQITVNVNDAVAERLADALMEHGALSAAIEDAYAGTQNEQAIFGEPGMPAEQIWQQSKVIALFGEHDEAAAIIQTATQECGLK”, for which the “soluble on expression in E. coli” value is recorded as “not soluble”.
Then “KAVIDIDAATKIMCSNAKAISLNEVEKNEIISKYREITAKKSERAELKEVEPIPLDWPSDLTLPPLPESTNDYVWAGKRKELDDYPRKQLIIDGLSIVIPTYNRAKILAITLACLCNQKTIYDYEVIVADDGSKENIEEIVREFESLLNIKYVRQKDYGYQLCAVRNLGLRAAKYNYVAILDCDMAPNPLWVQSYMELLAVDDNVALIGPRKYIDTSKHTYLDFLSQKSLINEIPEIITNNQVAGKVEQNKSVDWRIEHFKNTDNLRLCNTPFRFFSGGNVAFAKKWLFRAGWFDEEFTHWGGEDNEFGYRLYREGCYFRSVEGAMAYHQEPPGKENETDRAAGKNITVQLLQQKVPYFYRKKEKIESATLKRVPLVSIYIPAYNCSKYIVRCVESALNQTITDLEVCICDDGSTDDTLRILQEHYANHPRVRFISQKNKGIGSASNTAVRLCRGFYIGQLDSDDFLEPDAVELCLDEFRKDLSLACVYTTNRNIDREGNLISNGYNWPIYSREKLTSAMICHHFRMFTARAWNLTEGFNESISNAVDYDMYLKLSEVGPFKHINKICYNRVLHGENTSIKKLDIQKENHFKVVNESLSRLGIKKYKYSPLTNLNECRKYTWEKI”, with “soluble”; and “VRPAIKVGLSTASVYPLRAEAAFEYADRLGYDGVELMVWGESVSQDIDAVRKLSRRYRVPVLSVHAPCLLISQRVWGANPILKLDRSVRAAEQLGAQTVVVHPPFRWQRRYAEGFSDQVAALEAASTVMVAVENMFPFRADRFFGAGQSRERMRKRGGGPGPAISAFAPSYDPLDGNHAHYTLDLSHTATAGTDSLDMARRMGPGLVHLHLCDGSGLPADEHLVPGRGTQPTAEVCQMLAGSGFVGHVVLEVSTSSARSANERESMLAESLQFARTHLLR”, with “not soluble”.
In the case of “MYELYTLLAEYYDTIYRRRIERVKAEIDFVEEIFKEDAKREVRRVLDLACGTGIPTLELAERGYEVVGLDLHEEMLRVARRKAKERNLKIEFLQGDVLEIAFKNEFDAVTMFFSTIMYFDEEDLRKLFSKVAEALKPGGVFITDFPCWFYGGRDGPVVWNEQKGEEKLVIMDWREVEPAVQKLRFKRLVQILRPNGEVKAFLVDDELNIYTPREVRLLAEKYFEKVKIYGNLKRELSPNDMRYWIVGIAKSF”, the “soluble on expression in E. coli” value is given as “soluble”.
The value for “MAHHHHHHMYNPALPNHYRGVVFAAYVRRRQREEAAAAQQQRQPNALASALSASSLAAPSMASVTAPLLGLSAEELHQHRIKESAALGIQRAVMMEKEALEVEHKKRKLEGSDARSRISSRLDKLKALAAKSKAVTGVSASLDAGDAILQAGGPSSPTSSQRTSSSSFDAEAAPSAPLVFQRSSLAAGGYVMAAADPSLPGMLLRTKTRSAVQGKPSSTLLLRFLHDSPVLGWKEAAIAEASTLSSAESSLCAPVLSQVQQLCRRFGFVRSMAAHVYAEDVVTAALARARSQTSAETQVPSAEAVRREQLRVWVRFDSVTEAFKAAESLAKEVSPATPAGRPVFAVAFYPTGLYDSGALELREEDLLSPSA” was “not soluble”.
The value for “MSLNSNHKQPIFDNVLNRKFQVNEPNRAYVSDMTYIPTHEGWLYLTVVIDLFSRKVVGWNMSSRMKADTVCDALTMAIWQRKPKAGLIVHSDRGSQYASKQYRSLLNQHGLVGSMSKKGDCWDNSVAESFFSRLKDELVHWRNYQTRREAKQDILDYMTMFYNNQRLHSSLDYLSPNQFENRYWGLMKKVAEGHHHHHH” was “soluble”; that for “MKAKITGEDDVRVGLHVTDNNGVKHKIEMEFNGEIKYHNQDGYPDKPKNRTPNGNAHVNQTCRYARYHVYQETEYTPLPPEENLPGIKKVKQAIADLSVKEFEAYFSDTYDQVLSNHPSVTPPVPHPESVPQNGYILYLIDVYLDDNDEIEAVSDIHLQYLDENGDKTQDWNDDPFPDRQPDARLQLFGKYVPSMDVFQEFVVYHLRCQLRDVYIGAGLEPPEKYRVLGRGDDDLTSRYHNDKVTIYDDYHLEEADIPGYELEFDYGFGELGKQSVINAKRKGIGAENPDDADSRLANPSQDGEEGLLETVSSVLRGSDTDQTET” was “not soluble”.
The value for “MNNTDYMIHLLARTIKTGKDELITPLIIQLSDMQVSRDLLEKHNLPALVAEYAPFNEAAKSLSKSVLAWKYEEIAQEMPQLLKEFVQIAKEKRVPEEFMVRLVTSLMDFDDLDTVRSCLEILNHFEFSLDEYEELGIYRKATQFEGQFRDADEIIAKVDVLLLQDEILEEDEAEVEADDLIGHAEENEEEENDFSDDESVISETESGIYTDEELELEDHFEAVRKEDRKDQVMTEICMMLLAGYIRSGNSEVISAAIKFTWAFDYSLEMYQKYDIQNLIYNFGVHNDDAELLMNHIKELQARELFNENRKFFKRFLRTCMEEKTITDSVLSYLKGFLENGDDYMVSCTLKFLLGMPITLSQFKTSHVEACLENLESGPSAQLGFMLKMKIQKLEHSEKS” was “not soluble”; that for “MSLEKLMALYNISSPSGKEGKIAGFIIGELRRMGIPFRQDRYGNIYAVKGNRESYPCVVAHMDEVHRRKTGSYAAHLVADSMIVGYDHKRKRMTGIGADDKNGIWICLKCLEDFKAVKCAFFVQEEIGCIGSGHADMSFFSDCRFVIQCDRKGNGDMVTQINGMRLCSNEFISAVDPRKYGYKPAQGLATDVAALKRNGLEVSCVNLSCGYYEPHTDNEYTVLADLCKCYRFVRHIICCHKEGHHHHHH” was “soluble”; that for “DIALTQPASVSGSPGQSITISCTGTSSDVGSNNYVSWYQQHPGKAPKLMIYGGSNRPSGVSNRFSGSKSGNTASLTISGLQAEDEADYYCRSWDSNLSYSVFGGGTKLTVLGQPKAAPSVTLFPPSSEELQANKATLVCLISDFYPGAVTVAWKADSSPVKAGVETTTPSKQSNNKYAASSYLSLTPEQWKSHRSYSCQVTHEGSTVEKTVAPTEA” was “soluble”.
For the sequence “MRSVTLPLLMFCLGLAACSGDGGRRPSTCEVISPPDVMVPTEQNRQRVEQQSSGDPTAGQKPVECP”, the “soluble on expression in E. coli” value is given as “not soluble”.
The value for “MARLTVHTLETAPEAAKARVEAVLQNNGFIPNLIGVLSNAPEALAFYQEVGKLNAANSLTAGEVEVIQIIAARTNQCGFCVAGHTKLATLKKLLSEQSVKAARALAAGEFDDAKLGALAAFTQAVMAKKGAVSDEELKAFFDAGYNQQQAVEVVMGVALATLCNYVNNLGQTEINPELQAYA” was “soluble”; that for “MQGVKERFLPLGNSGDRAPRPPDGRGRVRPRTQDGVGNHTMARIPKTLKFVVVIVAVLLPVSPRRGPWLGKSAPGAGRGQGDGDTAGMPGPGHLRPGMSGQDELAVGVRGRTGSPGWAGGTRPRGSREAVPLAAPSPRREGSSRIERGRESRWNP” was “soluble”.
As for “DVNFILTFPTGYGKTTLSLEIVRMIDLKPTQNFSRLIHVVPTRSLAKDIQNSACERGLGFAVQYSFTPSHIKSPLFLAKFIITTYDSFLLNLYKASIGEPFSYHGHYDLPRFGIYTSLVHFDEFHLMNEGNSWTSLLGAVRHLSKVGVNMILSSATPSKSVEEELIRMMENRKVVRLAVVNEYGESVKNRNCV”, the “soluble on expression in E. coli” value is on record as “not soluble”.
“MNAAVVRRTQEALGKVIRRPPLTEKLLSKPPFRYLHDIITEVIRMTGFMKGLYTDAEMKSDNVKDKDAKISFLQKAIDVVVMVSGEPLLAKPARIVAGHEPERTNELLQIIGKCCLNKLSSDDAVRRVLAGEK”: the “soluble on expression in E. coli” value was “soluble”.
